For orientation: Kd means the equilibrium constant for the complex coming apart. A low value points to a tighter complex.

In this assay the target is T1, Histone H4 methylated peptide, SGRGK(me3)GGKGLGKGGAK (trimethyl-lysine K(me3) at K5).
T1 peptide: SGRGKGGKGLGKGGAK
Put plainly: SPR.

B1: D6 Fab (Fab, V domains shown)
VH: QTVKESGGRLVTPGGTLTLTCTVSGFSLSRYAMSWVRQAPGEGLEYIGWINTYGSAYYASWVNGRFTISKTSTTMDLKMTSLTAADTATYFCVRWFADGGMDPWGPGTLVTVSS
VL: ALVLTQTPSPVSAAVGGAVSISCQSSQNIYKDNELSWYQQKPGQPPKLLIYKASTLASGVPSRFSGSGSGTQFTLTISGVQCDDAATYYCQGSRYNNGWDSGFGGGTEVVVK
The molecule B1 displayed a Kd of 870 µM.

B2: C9 Fab (Fab, V domains shown)
VH: QSVEESGGRLVTPGTPLTLTCTVSGFSLTSYDMSWVRQAPGKGLEYIGFISSTTGGTYYASWAKGRFTISKTSTTVDLKITSPTTEDTATYFCAAGSWYNMWGPGTLVTVSS
VL: AQVLTQTPSSVSAAVGGTVTINCQASQSVYNNNWLGWYQQKPGQPPKLLIYKASTLASGVPSRFRGSGSGTQFTLTISDVQCDDAATYYCAGGYNGNIFPFGGGTEVVVT
Turning to B2, the Kd stood at 1600 µM.

These data come from PMC7948472 (2020).
